{
  "source": "patent US20030041342",
  "proteins": {"B1": {"name": "GST-ZMWEE1 (glutathione S-transferase ZMWEE1 fusion protein, from pGEX2Tzmwee1, made in E. coli) (protein)", "chain": "CTPDYITPEMPQVANEFDDDDKENIPCPKSPEKSANPRSKRYRTDCSPKAREVTDFSFDHQITPVLFDSLTRDDSEEEQPKQPALEKRGGYVSQSAVALRCRVMPPPCVKNPYLNTDPCIDAAVYGGRQCNSAVFSPSIGGNGLSRYRTDFHEIEKIGYGNFSVVFKVLNRIDGCLYAVKRSIKQLHNDMERRQAVKEVQAMAALGSHENIVRYFTSWFENEQLYIQMELCDRCLSMNRNQPVKRGEALELLYQICKGLDFMHERGIAHLDVKPDNIYVRNGIYKLGDFGCATLVNRSLAIEDGDSRYMPPEMLNDKYEHLDKVDIFSLGAAVYELIRGTPLPESGSHFTSIREGKIALLPGCPMQFQSLIKSMMDPDPVRRPSAKEILRHPSFDKLHKASSK"}},
  "biological_target": "maize CDK (cyclin-dependent protein kinase) from immature ear extract",
  "data": [
    {"protein": "B1", "values": [
      {"measurement": "CDK activity (histone H1 kinase activity) of CDK adsorbed by p13^suc1", "result": "GST-ZMWEE1, with or without pre-incubation, inhibited CDK activity"},
      {"measurement": "histone H1-kinase activity in crude immature ear extract", "result": "GST-ZMWEE1 inhibits the histone H1-kinase activity in the extract"}
    ]}
  ]
}
